T1: GR (Homo sapiens, UniProt P04150)
T1 sequence (P04150 1-777): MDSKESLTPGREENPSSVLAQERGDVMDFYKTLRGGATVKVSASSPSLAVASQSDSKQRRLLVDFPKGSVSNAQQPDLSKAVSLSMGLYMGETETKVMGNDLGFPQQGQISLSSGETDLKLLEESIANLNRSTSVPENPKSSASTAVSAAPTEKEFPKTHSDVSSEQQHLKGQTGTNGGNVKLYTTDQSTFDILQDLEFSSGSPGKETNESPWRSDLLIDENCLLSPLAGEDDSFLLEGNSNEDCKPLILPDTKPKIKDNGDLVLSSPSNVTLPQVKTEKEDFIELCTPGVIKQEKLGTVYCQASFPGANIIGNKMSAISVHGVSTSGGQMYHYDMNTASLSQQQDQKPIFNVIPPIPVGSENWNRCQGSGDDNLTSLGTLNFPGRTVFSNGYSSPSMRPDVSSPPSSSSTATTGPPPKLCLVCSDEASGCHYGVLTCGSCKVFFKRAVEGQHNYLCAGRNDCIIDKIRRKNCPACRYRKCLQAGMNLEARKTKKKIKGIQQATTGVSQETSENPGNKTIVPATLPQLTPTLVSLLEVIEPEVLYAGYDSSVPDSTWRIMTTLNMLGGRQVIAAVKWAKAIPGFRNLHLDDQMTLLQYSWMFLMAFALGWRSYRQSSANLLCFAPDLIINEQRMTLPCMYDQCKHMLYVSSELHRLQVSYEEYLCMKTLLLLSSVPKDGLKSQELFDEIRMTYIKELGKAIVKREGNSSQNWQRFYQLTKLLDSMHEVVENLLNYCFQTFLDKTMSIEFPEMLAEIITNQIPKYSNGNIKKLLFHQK

B1: ARA54: 54 kDa protein that interacts with AR in an androgen-dependent manner; AR coactivator (protein)
Chain of AR (P10275 whole entry): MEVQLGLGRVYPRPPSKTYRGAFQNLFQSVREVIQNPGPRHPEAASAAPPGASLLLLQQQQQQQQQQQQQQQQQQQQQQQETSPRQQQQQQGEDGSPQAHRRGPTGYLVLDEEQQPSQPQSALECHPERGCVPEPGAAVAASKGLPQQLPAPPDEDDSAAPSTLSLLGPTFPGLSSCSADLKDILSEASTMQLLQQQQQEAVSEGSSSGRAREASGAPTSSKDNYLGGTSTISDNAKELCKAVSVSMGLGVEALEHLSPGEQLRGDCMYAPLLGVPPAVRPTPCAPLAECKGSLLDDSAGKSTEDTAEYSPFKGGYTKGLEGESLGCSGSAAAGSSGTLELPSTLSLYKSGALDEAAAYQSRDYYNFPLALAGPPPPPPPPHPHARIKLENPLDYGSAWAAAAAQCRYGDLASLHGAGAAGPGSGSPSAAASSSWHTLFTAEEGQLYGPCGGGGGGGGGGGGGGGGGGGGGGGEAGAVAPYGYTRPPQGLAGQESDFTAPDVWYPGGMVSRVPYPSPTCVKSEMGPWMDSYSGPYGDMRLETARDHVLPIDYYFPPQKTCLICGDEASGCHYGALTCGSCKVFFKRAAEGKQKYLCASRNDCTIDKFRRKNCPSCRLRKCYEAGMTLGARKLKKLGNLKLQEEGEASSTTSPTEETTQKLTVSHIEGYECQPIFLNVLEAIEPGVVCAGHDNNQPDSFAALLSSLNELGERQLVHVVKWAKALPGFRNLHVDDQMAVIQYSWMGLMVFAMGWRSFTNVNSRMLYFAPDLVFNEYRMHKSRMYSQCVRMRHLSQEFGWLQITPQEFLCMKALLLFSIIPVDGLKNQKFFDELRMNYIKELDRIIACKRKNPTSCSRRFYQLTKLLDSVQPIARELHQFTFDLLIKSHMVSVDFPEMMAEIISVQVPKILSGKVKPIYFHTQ
chain: MSSEDREAQEDELLALASIYDGDEFRKAESVQGGETRIYLDLPQNFKIFVSGNSNECLQNSGFEYTICFLPPLVLNFELPPDYPSSSPPSFTLSGKWLSPTQLSALCKHLDNLWEEHRGSVVLFAWMQFLKEETLAYLNIVSPFELKIGSQKKVQRRTAQASPNTELDFGGAAGSDVDQEEIVDERAVQDVESLSNLIQEILDFDQAQQIKCFNSKLFLCSICFCEKLGSECMYFLECRHVYCKACLKDYFEIQIRDGQVQCLNCPEPKCPSVATPGQVKELVEAELFARYDRLLLQSSLDLMADVVYCPRPCCQLPVMQEPGCTMGICSSCNFAFCTLCRLTYHGVSPCKVTAEKLMDLRNEYLQADEANKRLLDQRYGKRVIQKALEEMESKEWLEKNSKSCPCCGTPIEKLDGCNKMTCTGCMQYFCWICMGSLSRANPYKHFNDPGSPCFNRLFYAVDVDDDIWEDEVED
B2: C′-ARA54: C-terminal region (amino acids 361-474) of ARA54 (protein)
chain: RNEYLQADEANKRLLDQRYGKRVIQKALEEMESKEWLEKNSKSCPCCGTPIEKLDGCNKMTCTGCMQYFCWICMGSLSRANPYKHFNDPGSPCFNRLFYAVDVDDDIWEDEVED
modifications: Homo sapien
notes: C-terminal region (amino acids 361-474) of ARA54

Assays:
AR = AR transactivation assay, MMTV-CAT reporter, transient transfection (Example 1); assay type: cell-based, human
Protocol: Human prostate cancer DU145 or PC3 cells, or human lung carcinoma cells NCI H1299 were grown in Dulbecco's minimal essential medium (DMEM) containing penicillin (25 U/ml), streptomycin (25˜g/ml), and 5% fetal calf serum (FCS). One hour before transfection, the medium was changed to DMEM with 5% charcoal-stripped FCS. […] A β-galactosidase expression plasmid, pCMV-β-gal, was used as an internal control for transfection efficiency.
The medium was changed 24 hr posttransfection and the cells treated with either steroid hormones or hydroxyflutamide, and cultured for an additional 24 hr. Cells were harvested and assayed for CAT activity after the cell lysates were normalized by using β-galactosidaseas an internal control. Chloramphenicol acetyltransferase (CA) activity was visualized by PhosphorImager (Molecular Dynamics) and quantitated by ImageQuant software (Molecular Dynamics).

GR = biological target: T1, GR; experiment: GR transactivation reporter gene assay (Example 2); assay type: cell-based; design: expressed in transfected cells; host or cells: PC-3
Protocol: 12. […] PC-3 (A) or DU145 (B) cells were transfected with MMTV-CAT (2.5 μg), steroid receptor expression plasmid (AR, PR, or GR; 1.0 μg for PC-3 and 0.75 μg for DU145), and pSG5-C′-ARA54 (C′) or pSG5-mt-ARA54 (mt) (8.0 μg for PC-3 and 6.75 μg for DU145), with (for DU145) or without (for PC-3) pSG5-fl-ARA54 (2.25 μg). The total amount of DNA was adjusted to 12.5-13.25 μg with pSG5 for each transfection. […] The CAT activity is presented relative to that of vector alone with cognate ligand in each panel (black bars; set as 100%). Values represent the mean±SD of at least three determinations.
394. The human prostate cancer cell lines, LNCaP, PC-3, and DU145, were maintained in Dulbecco's minimum essential medium (DMEM) containing 5% fetal calf serum (FCS). Transfections using the calcium phosphate precipitation method and chloramphenicol acetyltransferase (CAT) and luciferase (Luc) assays were performed as previously described (Miyamoto et al. (1998) Proc. Natl. Acad. Sci. U.S.A. 95, 7379-7384; Yeh et al. (1999) Endocrine 11, 195-202; Miyamoto et al. (1998) Proc. Natl. Acad. Sci. U.S.A. 95, 11083-11088). Briefly, 1-4×10^5 cells were plated on 35-mm or 60-mm dishes 24 h before adding the precipitation mix containing a CAT or Luc reporter gene and a β-galactosidase expression plasmid (pCMV-β-gal) as an internal control for normalization of transfection efficiency. The medium was changed to phenol-red-free DMEM with 5% charcoal-stripped FCS 1 h before transfection. In each experiment, the total amount of transfected DNA per dish was maintained as a constant by addition of empty expression vector (pSG5 or pVP16, as appropriate). […] The cells were then harvested and whole cell extracts were used for CAT or Luc assay. The CAT activity was quantitated with a PhosphorImager (Molecular Dynamics). The Luc assay was determined using a Dual-Luciferase Reporter Assay System (Promega) and luminometer.

Molecule | enhancement of the transcription activity of AR (AR; DU145 cells) | enhancement of wtAR transactivation by coexpression (AR; wtAR, DHT 10^−10 to 10^−8 M) | induction of GR transcription activity (GR; DU145 cells, cotransfected with GR) | inhibition of AR-mediated transcription (AR; H1299 cells, endogenous ARA54) | effect on fl-ARA54-induced GR transactivation (GR; DU145 cells) | effect on GR transactivation (GR; PC-3 cell line)
B1 | up to 6 fold | 3-5 fold | 1.6 fold | – | – | –
B2 | – | – | – | up to 70% | little effect | only marginally repressed

Source: patent US20060270591A1, “Androgen receptor coregulators” (priority 2002, published 2006)
